The values that follow come from patent USRE48522 (SURVAC, dated 2021).

Test [1] concerns the target HLA-B35 (human). In words: assembly assay: HLA-B35 stabilisation; against sur51-59.
The target in test [2] is HLA-B35 (human). In words: assembly assay: HLA-B35 stabilisation, T2-B35 lysate, W6/32 IP, IEF gel.
Test [3] concerns the target HLA-B35 (human). In words: assembly assay: HLA-B35 stabilisation; against sur46-54.

B1: Sur51Y9 (peptide)
peptide: EPDLAQCFY
notes: Analogue of survivin51-59 with the C-terminal F replaced by Y
On to B1, for which the “fold higher affinity relative to the native peptide” value in the test with HLA-B35 [1] is 5 to 10 fold. In the test with HLA-B35 [2], this molecule came in with a C50 of 1.5 µM.

B2: Sur46Y9 (peptide)
peptide: CPTENEPDY
notes: Analogue of survivin46-54 with the C-terminal L replaced by Y
Consider B2, for which the “fold higher affinity relative to the native peptide” value in the test with HLA-B35 [3] fell in the range of 5 to 10 fold. Besides, the C50 with HLA-B35 [2] was 4 µM.
